Residue numbers refer to the chain shown, from its start. A value given as a limit tells only on which side of the number the result lay.

From patent US20160185837A1, “GIP AND GLP-1 RECEPTOR DUAL-AGONISTS FOR THE TREATMENT OF DIABETES” (Medimmune Limited, priority 2013, published 2016) come the findings set out here.

Holding throughout (experiment): cell-based or functional assay
In assay [1] the target is human GLP-1 receptor (human) (UniProt P43220).
For assay [2], the target named is human glucagon receptor (human) (UniProt P47871).
Assay [3] deals with T1, mouse GIP receptor (mouse) (UniProt Q0P543).
T1 sequence (looked up): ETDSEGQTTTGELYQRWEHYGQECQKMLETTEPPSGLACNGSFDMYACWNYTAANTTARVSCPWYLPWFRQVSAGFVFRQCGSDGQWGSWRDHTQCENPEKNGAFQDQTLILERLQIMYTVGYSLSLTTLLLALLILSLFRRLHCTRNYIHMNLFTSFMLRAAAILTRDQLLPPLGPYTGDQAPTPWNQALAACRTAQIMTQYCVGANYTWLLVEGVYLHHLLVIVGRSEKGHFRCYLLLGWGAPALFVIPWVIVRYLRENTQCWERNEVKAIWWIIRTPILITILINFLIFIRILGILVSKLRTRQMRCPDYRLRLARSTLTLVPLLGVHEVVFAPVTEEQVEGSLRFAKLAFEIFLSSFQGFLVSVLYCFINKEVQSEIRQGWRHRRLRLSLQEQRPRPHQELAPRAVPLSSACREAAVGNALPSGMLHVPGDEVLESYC

Assay [4] concerns the target T2, human GIP receptor (human) (UniProt P48546).
T2 sequence (looked up): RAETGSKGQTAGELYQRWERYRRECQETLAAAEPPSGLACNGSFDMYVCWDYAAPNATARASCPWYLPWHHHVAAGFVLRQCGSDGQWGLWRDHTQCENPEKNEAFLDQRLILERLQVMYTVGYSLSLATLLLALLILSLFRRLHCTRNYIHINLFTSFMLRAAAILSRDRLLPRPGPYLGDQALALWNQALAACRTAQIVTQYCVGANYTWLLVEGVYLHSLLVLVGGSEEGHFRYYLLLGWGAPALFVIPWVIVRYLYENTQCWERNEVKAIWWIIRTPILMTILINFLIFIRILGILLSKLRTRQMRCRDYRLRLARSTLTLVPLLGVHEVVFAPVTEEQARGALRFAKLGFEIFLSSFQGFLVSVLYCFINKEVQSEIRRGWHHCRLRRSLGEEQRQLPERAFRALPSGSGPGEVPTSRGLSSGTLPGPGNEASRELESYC

Chain of human glucagon receptor (human) (P47871 26-477): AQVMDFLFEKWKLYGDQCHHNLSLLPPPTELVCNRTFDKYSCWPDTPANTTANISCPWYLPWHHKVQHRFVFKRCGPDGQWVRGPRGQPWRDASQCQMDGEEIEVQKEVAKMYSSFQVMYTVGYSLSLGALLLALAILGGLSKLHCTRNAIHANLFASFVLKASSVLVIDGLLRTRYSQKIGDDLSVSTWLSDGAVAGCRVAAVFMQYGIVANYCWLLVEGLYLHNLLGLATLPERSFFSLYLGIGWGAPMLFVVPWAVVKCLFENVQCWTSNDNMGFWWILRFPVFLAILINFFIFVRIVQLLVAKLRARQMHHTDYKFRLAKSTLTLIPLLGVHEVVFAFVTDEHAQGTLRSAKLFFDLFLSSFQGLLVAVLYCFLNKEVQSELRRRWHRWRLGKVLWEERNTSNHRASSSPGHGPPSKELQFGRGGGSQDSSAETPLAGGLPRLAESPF
Chain of human GLP-1 receptor (human) (P43220 24-463): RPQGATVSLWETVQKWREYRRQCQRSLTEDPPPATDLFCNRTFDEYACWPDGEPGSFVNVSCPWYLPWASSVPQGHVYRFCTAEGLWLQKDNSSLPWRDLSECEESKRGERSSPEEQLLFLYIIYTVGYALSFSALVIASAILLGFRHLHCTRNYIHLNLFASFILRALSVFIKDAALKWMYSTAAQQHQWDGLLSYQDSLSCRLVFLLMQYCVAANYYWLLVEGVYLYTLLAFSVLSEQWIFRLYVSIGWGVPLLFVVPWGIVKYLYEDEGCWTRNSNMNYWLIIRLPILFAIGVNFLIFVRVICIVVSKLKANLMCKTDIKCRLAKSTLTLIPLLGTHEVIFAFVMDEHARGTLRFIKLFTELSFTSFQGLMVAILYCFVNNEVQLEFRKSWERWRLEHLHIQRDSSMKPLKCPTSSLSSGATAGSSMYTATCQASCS

B1: IP404 (Fc fusion)
chain: YSEGTFTSLYRIHKERQAIDEFIAKLLKGGGSGGGGSGGGGSGGGGSGGGGSGGGGSGGGGSGGGGSACPPC
B1: the results for the cAMP EC50 in assay [1], in assay [2] and in assay [3] were greater than 17.2 nM, greater than 17.2 nM and 0.05 nM, respectively.

B2: IP408 (Fc fusion)
chain: B1 chain with F6H, L9D, Y10L, H13L, K14L
For the molecule B2, the cAMP EC50 in assay [1] is greater than 166 nM; in assay [2] it was greater than 166 nM; in assay [3] it was 0.38 nM.

B3: IP422 (Fc fusion)
chain: B1 chain with F6H, L9D, Y10L, H13L, K14L, K25F
Take B3: the cAMP EC50, hGIPr (C3) line in assay [4] worked out at 1.8 nM. Also, the cAMP EC50 is greater than 59 nM in assay [1], greater than 59 nM in assay [2] and 0.012 nM in assay [3].

B4: IP187 (Fc fusion)
chain: HGEGTFTSDVSSYLEGQAAKEFIAWLVKGAPPGGGGGSGGGGSGGGGSGGGGSATHTCPPCPAPEF
For B4, the cAMP EC50, Batch 1 amounted to 540 nM in assay [4] and 0.037 nM in assay [1].

B5: IP191 (Fc fusion)
chain: HGEGTFTSDVSSYLEGQAAKEFIAWLVKGAAAGGSGSTASSGSGSATGGGGAATYTCPPCPAPEF
The molecule B5 displayed a cAMP EC50, Batch 1 in assay [1] of 0.057 nM.

B6: IP192 (Fc fusion)
chain: B5 chain with Y55S
In turn, B6 returned a cAMP EC50, Batch 1 in assay [1] of 0.043 nM.

B7: IP288 (Fc fusion, not shown: a dimerising Fc or GST)
chain: GGGGGSGGGGSGGGGSGGGGSATHTCPPC
As for B7, in assay [4], the cAMP EC50 came out at 2300 nM.

B8: IP204 (Fc fusion)
chain: HGEGTFISDYSIAMDKIHQQDFVNWLLAQKAAAGGSGSTASSGSGSATGGGGAATHTCPPCPAPEF
For the molecule B8, the figures for the cAMP EC50 in assay [4] and in assay [1] were 0.12 nM and 850 nM, respectively.

B9: IP224 (Fc fusion)
chain: YSEGTFTSDVSSYMERQAIDEFIAWLLGGGAAAGGSGSTASSGSGSATGGGGAATHTCPPCPAPEF
In the case of B9, the cAMP EC50 in assay [4] was determined as 0.35 nM; in assay [1], 0.57 nM.

B10: IP150 (Fc fusion)
chain: B9 chain with M14L, R16G, I19A, D20K, L27V, G28A, A32P, A33P
Regarding B10, the cAMP EC50 amounted to 16 nM in assay [4] and 0.033 nM in assay [1].

B11: IP176 (Fc fusion)
chain: B9 chain with D20S, G28K, G30P
Turning to B11, the cAMP EC50 in assay [4] came to 0.42 nM; in assay [1], 0.6 nM.

B12: IP203 (Fc fusion)
chain: B9 chain with Y1H, S2G, M14L, R16G, I19A, D20K, L27V, G28K
For B12, the cAMP EC50, Batch 1 in assay [4] is 110 nM; in assay [1], 0.042 nM; in assay [2], greater than 650 nM.

B13: IP193 (Fc fusion)
chain: HGEGTFTSDVSSYLEGQAAKEFIAWLVKGAAAGGSGSTASSGSGSATGGGGCPPCPAPEF
Consider B13, for which the figures for the cAMP EC50, Batch 1 in assay [4], in assay [1] and in assay [2] were 450 nM, 0.064 nM and 780 nM, respectively.

B14: IP231 (Fc fusion)
chain: HGEGTFTSDVSSYLEEQAAKEFIAWLVKGGGGGGSGGGGSGGGGSGGGGSATHTCPPC
Consider B14, for which the cAMP EC50, Batch 1 in assay [1] is 0.067 nM.

B15: IP238 (Fc fusion)
chain: HGEGTFTSDVSSYLEGQAAKEFIAWLVKGGGGGGSGGGGSGGGGSAESKYGPPCPPC
Take B15: the figures for the cAMP EC50, Batch 1 in assay [4] and in assay [1] were 310 nM and 0.058 nM, respectively.

B16: IP174 (Fc fusion)
chain: HGEGTFTSDVSSYLEEEAAKEFIAWLVAGGAAAGGSGSTASSGSGSATGGGGAATHTCPPCPAPEF
Turning to B16, the cAMP EC50 in assay [4] came out at 460 nM; in assay [1] it was 0.032 nM.

B17: IP146 (Fc fusion)
chain: HGEGTFTSDVSSYLEGQAAKEFIAWLVKGAAAGGSGSTASSGSGSATGGGGAACPPCPAPEF
With B17, the values for the cAMP EC50, Batch 1 in assay [4], in assay [1] and in assay [2] were 83 nM, 0.049 nM and 650 nM, respectively.

B18: IP194 (Fc fusion)
chain: B17 chain with A52P, A53P
B18: in assay [1], the cAMP EC50, Batch 1 was determined as 0.061 nM.

B19: IP207 (Fc fusion)
chain: YAEGTFISDYSIAMDKIHQQDFVNWLLAQKGKKNDWKHNITQAAAGGSGSTASSGSGSATGGGGAATHTCPPCPAPELL
As for B19, the results for the cAMP EC50 in assay [4], in assay [1] and in assay [2] were 0.0078 nM, 4100 nM and 900 nM, respectively. Further, in assay [4], the cAMP EC50, Batch 1 amounted to 0.0085 nM.

B20: IP407 (Fc fusion)
chain: YSEGTFTSDYSKLLEEEAIRLFIEWLLAGGGGGGSGGGGSGGGGSGGGGSATHTCPPC
For the molecule B20, the cAMP EC50 was 0.25 nM in assay [1], greater than 163 nM in assay [2] and 2.3 nM in assay [3].

B21: IP420 (Fc fusion)
chain: B20 chain with I19T
For B21, the cAMP EC50 in assay [1] came out at 0.082 nM; in assay [2], 21 nM; in assay [3] it was 2.6 nM.

B22: IP197 (Fc fusion)
chain: YSEGTFTSDVSSYMERQAIDEFIAWLLAGAAAGGSGSTASSGSGSATGGGGAATHTCPPCPAPEF
As to B22, the cAMP EC50 was 0.18 nM in assay [4] and 0.78 nM in assay [1].

B23: IP199 (Fc fusion)
chain: B5 chain with V27L, K28A, Y55H
B23 showed a cAMP EC50 in assay [1] of 0.069 nM.

B24: IP173 (Fc fusion)
chain: B22 chain with M14L, R16E, I19A, D20K
In the case of B24, the results for the cAMP EC50 in assay [4] and in assay [1] were 1.2 nM and 0.23 nM, respectively.

B25: IP233 (Fc fusion)
chain: B5 chain with G16E, Y55H
In turn, B25 gave a cAMP EC50, Batch 1 in assay [1] of 0.036 nM.

B26: IP208 (Fc fusion)
chain: B22 chain with M14L, R16G, I19A, D20K
In the case of B26, the values for the cAMP EC50 in assay [4] and in assay [1] were 17 nM and 1.6 nM, respectively.

B27: IP171 (Fc fusion)
chain: B22 chain with D20S
For B27, the cAMP EC50 in assay [4] worked out at 0.39 nM; in assay [1] it was 0.53 nM.

B28: IP188 (Fc fusion)
chain: YSEGTFISDYSIAMDKIHQQDFVNWLLAQKAPPGGGGGSGGGGSGGGGSGGGGSATHTCPPCPAPEF
As for B28, the cAMP EC50, Batch 1 turned out to be 0.0038 nM in assay [4], 500 nM in assay [1] and 350 nM in assay [2].

B29: IP132 (Fc fusion)
chain: HGEGTFTSDVSSYLEGQAAKEFIAWLVKGGGGGGSGGGGSGGGGSGGGGSATHTCPPCPAPEF
Take B29: the figures for the cAMP EC50, Batch 2 in assay [4] and in assay [1] were 81 nM and 0.04 nM, respectively.

B30: IP196 (Fc fusion)
chain: HGEGTFTSDVSSYLEGQAAKEFIAWLVKGAAAGGSGSTASSGSGSATGGGGAPEF
Take B30: the cAMP EC50, Batch 1 in assay [1] is 0.073 nM.

B31: IP195 (Fc fusion)
chain: HGEGTFTSDVSSYLEGQAAKEFIAWLVKGAAAGGSGSTASSGSGSATGGGGESKYGPPCPPCPAPEF
Consider B31, for which the cAMP EC50, Batch 1 in assay [1] came out at 0.061 nM.
